Data published in the RNAGym collection of RNA variant scans (doi:10.1093/molbev/msab373).

B1: Azoarcus group I ribozyme (parent)
chain: GUGCCUUGCGCCGGGAAACCACGCAAGGGAUGGUGUCAAAUUCGGCGAAACCUAAGCGCCCGCCCGGGCGUAUGGCAACGCCGAGCCAAGCUUCGGCGCCUGCGCCGAUGAAGGUGUAGAGACUAGACGGCACCCACCUAAGGCAAACGCUAUGGUGAAGGCAUAGUCCAGGGAGUGGCGAAAGUCACACAAACCGG

Variants of: B1
Assay: reverse-splicing fitness (ratio to wild type); higher = more active; in vitro selection; Mg2+ level not given
Procedure, shortened: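 An in vitro group I ribozyme library with randomized positions was T7-transcribed and gel-purified. In triplicate, 10 pmol RNA in EPPS pH 7.5 was reacted with 50 pmoles of a 30-nt RNA substrate for 1 h at 37 °C across several added MgCl2 levels (1–48 mM), then stopped with EDTA. Products were reverse transcribed from a substrate-complementary primer, PCR-amplified and sequenced (HiSeq 4000). Fitness is a variant's read proportion after selection over that before, normalised to wild type.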

Variant | reverse-splicing fitness
C82G A120U A145G C150A C169A | 0.00575
C82G A120U A145G C150A C169G | 0.00459
C82G A120U A145G C150A C169U | 0.00376
C82G A120U A145G C150G C169U | 0.00739
C82G A120U A145G C150G C169G | 0.0074
C82G A120U A145G C150G C169A | 0.00872
C82G A145C C150A C169G U176A | 0.0223
C82G A145C C150A C169G U176G | 0.00624
C82G A145C C150A C169G U176C | 0.0105
C82G A145C C150G C169A U176C | 0.00634
C82G A145C C150G C169A U176G | 0.00487
C82G A145C C150G C169A U176A | 0.00807
C82G A120U A145C C150G C169U U176A | 0.00213
C82G A120U A145C C150G C169U U176C | 0.00176
C82G A120U A145C C150G C169U U176G | 0.00182
C82G A145C C150G C169G | 0.00714
C82G A145C C150G C169U | 0.01
C82G A145C C150G C169A | 0.00875
C82G A120U C150A C169A U176G | 0.00205
C82G A120U C150A C169A U176A | 0.00432
C82G A120U C150A C169A U176C | 0.0035
C82G A120U A145U C150A C169U U176G | 0.00185
C82G A120U A145U C150A C169U U176A | 0.00242
C82G A120U A145U C150A C169U U176C | 0.0022

Variant | reverse-splicing fitness
C82G A120U A145U C150A C169U | 0.00221
C82G A120U A145U C150A C169G | 0.00252
C82G A120U A145U C150A C169A | 0.00187
C82G A120U A145G C150G C169A U176A | 0.012
C82G A120U A145G C150G C169A U176C | 0.00809
C82G A120U A145G C150G C169A U176G | 0.00485
C82G A145C U176A | 0.378
C82G A145C U176G | 0.153
C82G A145C U176C | 0.35
C82G A120U C150U C169A U176G | 0.00166
C82G A120U C150U C169A U176A | 0.00417
C82G A120U C150U C169A U176C | 0.00267
C82G A120U A145U C150U C169A | 0.00259
C82G A120U A145U C150U C169G | 0.00513
C82G A120U A145U C150U C169U | 0.00488
C82G A120U A145C C150U C169G | 0.003
C82G A120U A145C C150U C169A | 0.00185
C82G A120U A145C C150U C169U | 0.00351
C82G A120U A145U C169A U176C | 0.00205
C82G A120U A145U C169A U176A | 0.00245
C82G A120U A145U C169A U176G | 0.0013
C82G A120U A145C C150G C169U | 0.00302
C82G A120U A145C C150G C169A | 0.00195
C82G A120U A145C C150G C169G | 0.00253

Variant | reverse-splicing fitness
C82G A120U A145C C150A C169U | 0.00213
C82G A145G | 0.458
C82G A145C | 0.45
C82G A120U A145U C150G C169U | 0.00283
C82G A120U A145U C150G C169A | 0.00271
C82G A120U A145U C150G C169G | 0.00287
C82G A145C C169G U176A | 0.0202
C82G A145C C169G U176G | 0.0041
C82G A145C C169G U176C | 0.011
C82G A120U A145U C150G C169A U176C | 0.00187
C82G A120U A145U C150G C169A U176A | 0.0026
C82G A120U A145U C150G C169A U176G | 0.00205
C82G A145G C150A U176A | 0.0509
C82G A145G C150A U176C | 0.0688
C82G A145G C150A U176G | 0.0244
C82G A120U C169G U176G | 0.00147
C82G A120U C169G U176C | 0.00322
C82G A120U C169G U176A | 0.00367
C82G A120U A145G C150A U176G | 0.00517
C82G A120U A145G C150A U176A | 0.0118
C82G A120U A145G C150A U176C | 0.014
C82G A120U A145G U176A | 0.0724
C82G A120U A145G U176C | 0.11
C82G A120U A145G U176G | 0.0134

Variant | reverse-splicing fitness
C82G A145G C150G C169A | 0.00944
C82G A145C C169U U176G | 0.00465
C82G A145C C169U U176C | 0.0115
C82G A145C C169U U176A | 0.0128
C82G A120U A145C C150G | 0.0203
C82G A120U A145C C150U | 0.0385
C82G A120U A145U U176G | 0.02
C82G A120U A145U U176C | 0.116
C82G A120U A145U U176A | 0.0782
C82G A120U A145C C150U C169U U176C | 0.00227
C82G A120U A145C C150U C169U U176A | 0.00246
C82G A120U A145C C150U C169U U176G | 0.00165
C82G A145C C150A C169A U176G | 0.00515
C82G A145C C150A C169A U176C | 0.0049
C82G A145C C150A C169A U176A | 0.0106
C82G A145G C150A C169U U176G | 0.00552
C82G A145G C150A C169U U176C | 0.0141
C82G A145G C150A C169U U176A | 0.0137
C82G A145G C150A C169A U176C | 0.0238
C82G A145G C150A C169A U176G | 0.00731
C82G A145G C150A C169A U176A | 0.0204
C82G A120U A145C C150U U176A | 0.0158
C82G A120U A145C C150U U176G | 0.00871
C82G A120U A145C C150U U176C | 0.0197

Variant | reverse-splicing fitness
C82G A120U A145C C150A C169G U176C | 0.00207
C82G A120U A145C C150A C169G U176A | 0.0023
C82G A120U A145C C150A C169G U176G | 0.00136
C82G A120U C150G C169U | 0.00456
C82G A120U C150G C169A | 0.00734
C82G A120U C150G C169G | 0.0053
C82G A120U A145C C150U C169G U176G | 0.00162
C82G A120U A145C C150U C169G U176A | 0.00262
C82G A120U A145C C150U C169G U176C | 0.00277
C82G A145G C150G | 0.05
C82G A145G C150A | 0.0607
C82G A120U C150G C169A U176G | 0.00278
C82G A120U C150G C169A U176A | 0.00571
C82G A120U C150G C169A U176C | 0.00402
C82G A120U C150G U176C | 0.0103
C82G A120U C150G U176G | 0.00297
C82G A120U C150G U176A | 0.0062
C82G A120U A145C C150A C169U U176G | 0.00162
C82G A120U A145C C150A C169U U176A | 0.0023
C82G A120U A145C C150A C169U U176C | 0.00224
C82G A145G C150A C169A | 0.0117
C82G A145G C150A C169U | 0.0106
C82G A145G C150A C169G | 0.00861
C82G A120U A145G C169G U176C | 0.00438

Variant | reverse-splicing fitness
C82G A120U A145G C169G U176A | 0.00368
C82G A120U A145G C169G U176G | 0.00145
C82G A120U A145U C150U U176A | 0.0449
C82G A120U A145U C150U U176C | 0.0591
C82G A120U A145U C150U U176G | 0.0126
C82G A120U A145C C150G C169G U176A | 0.00247
C82G A120U A145C C150G C169G U176C | 0.00209
C82G A120U A145C C150G C169G U176G | 0.00178
C82G A120U A145C C169G | 0.00562
C82G A120U A145C C169A | 0.00201
C82G A120U A145C C169U | 0.00694
C82G A120U C150U C169G U176C | 0.00376
C82G A120U C150U C169G U176A | 0.00481
C82G A120U C150U C169G U176G | 0.00205
C82G A145C C150A C169G | 0.00807
C82G A145C C150A C169U | 0.00875
C82G A145C C150A C169A | 0.00782
C82G A120U A145G C150U C169U U176A | 0.00444
C82G A120U A145G C150U C169U U176C | 0.00469
C82G A120U A145G C150U C169U U176G | 0.00216
C82G A120U A145U C150G C169U U176A | 0.003
C82G A120U A145U C150G C169U U176C | 0.00223
C82G A120U A145U C150G C169U U176G | 0.00234
C82G A120U A145U C150G U176G | 0.00267

Variant | reverse-splicing fitness
C82G A120U A145U C150G U176C | 0.0112
C82G A120U A145U C150G U176A | 0.00715
C82G A120U A145U C169G | 0.00637
C82G A120U A145U C169A | 0.00221
C82G A120U A145U C169U | 0.00672
C82G A145C C150G U176G | 0.0106
C82G A145C C150G U176A | 0.0337
C82G A145C C150G U176C | 0.0389
C82G A120U A145U C150U C169U U176A | 0.00283
C82G A120U A145U C150U C169U U176G | 0.00159
C82G A120U A145U C150U C169U U176C | 0.00342
C82G A120U A145U C169U U176A | 0.00334
C82G A120U A145U C169U U176C | 0.00402
C82G A120U A145U C169U U176G | 0.00148
C82G A145C C150U C169U U176A | 0.0142
C82G A145C C150U C169U U176G | 0.00436
C82G A145C C150U C169U U176C | 0.00905
C82G A120U A145C C169G U176G | 0.00141
C82G A120U A145C C169G U176A | 0.00239
C82G A120U A145C C169G U176C | 0.00261
C82G A120U A145G C150A C169G U176A | 0.00555
C82G A120U A145G C150A C169G U176G | 0.00199
C82G A120U A145G C150A C169G U176C | 0.00422
